# Biological target: wild-type E. coli core RNA polymerase (E. coli, UniProt P0A8T7 1-1407; P0A8V2 1-1342; P0A7Z4 1-329; P0A800 1-91)
# Experiment: fluorescence polarisation
# wild-type E. coli core RNA polymerase, sequence (P0A8T7 whole entry, chain 1 of 4): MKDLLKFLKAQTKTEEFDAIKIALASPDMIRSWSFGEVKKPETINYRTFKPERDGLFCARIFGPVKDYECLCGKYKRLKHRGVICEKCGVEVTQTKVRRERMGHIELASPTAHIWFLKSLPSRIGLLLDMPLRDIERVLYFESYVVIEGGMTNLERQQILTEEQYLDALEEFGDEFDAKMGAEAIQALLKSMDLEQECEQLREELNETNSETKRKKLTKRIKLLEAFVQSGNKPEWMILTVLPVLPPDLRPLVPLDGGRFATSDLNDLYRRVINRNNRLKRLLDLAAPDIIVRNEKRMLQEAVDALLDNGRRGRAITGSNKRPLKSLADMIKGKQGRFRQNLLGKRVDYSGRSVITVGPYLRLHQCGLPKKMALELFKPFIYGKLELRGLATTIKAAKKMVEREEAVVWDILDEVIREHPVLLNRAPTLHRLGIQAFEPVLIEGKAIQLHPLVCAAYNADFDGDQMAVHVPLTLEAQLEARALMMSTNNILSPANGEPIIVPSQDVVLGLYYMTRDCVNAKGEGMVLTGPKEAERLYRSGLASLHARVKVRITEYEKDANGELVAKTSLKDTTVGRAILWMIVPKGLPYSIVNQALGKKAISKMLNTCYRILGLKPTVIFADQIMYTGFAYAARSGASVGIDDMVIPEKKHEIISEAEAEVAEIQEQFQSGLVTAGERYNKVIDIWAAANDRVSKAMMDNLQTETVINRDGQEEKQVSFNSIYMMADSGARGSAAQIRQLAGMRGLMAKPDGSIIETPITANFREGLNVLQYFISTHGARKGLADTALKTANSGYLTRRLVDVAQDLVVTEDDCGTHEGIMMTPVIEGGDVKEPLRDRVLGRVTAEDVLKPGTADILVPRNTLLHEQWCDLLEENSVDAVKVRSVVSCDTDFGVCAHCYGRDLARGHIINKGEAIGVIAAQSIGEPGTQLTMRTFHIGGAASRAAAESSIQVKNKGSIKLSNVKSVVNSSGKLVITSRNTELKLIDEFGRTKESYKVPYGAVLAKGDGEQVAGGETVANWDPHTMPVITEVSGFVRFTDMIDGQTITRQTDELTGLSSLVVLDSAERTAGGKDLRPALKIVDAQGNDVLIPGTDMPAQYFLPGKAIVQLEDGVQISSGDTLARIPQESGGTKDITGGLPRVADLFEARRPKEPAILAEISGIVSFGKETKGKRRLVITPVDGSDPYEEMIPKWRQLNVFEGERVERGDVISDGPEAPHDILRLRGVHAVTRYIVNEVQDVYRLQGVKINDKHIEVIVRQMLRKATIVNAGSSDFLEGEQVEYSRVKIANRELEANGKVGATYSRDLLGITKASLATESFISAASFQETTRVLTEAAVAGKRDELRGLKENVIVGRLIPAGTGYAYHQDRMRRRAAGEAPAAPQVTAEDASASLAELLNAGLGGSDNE
# wild-type E. coli core RNA polymerase, sequence (P0A8V2 whole entry, chain 2 of 4): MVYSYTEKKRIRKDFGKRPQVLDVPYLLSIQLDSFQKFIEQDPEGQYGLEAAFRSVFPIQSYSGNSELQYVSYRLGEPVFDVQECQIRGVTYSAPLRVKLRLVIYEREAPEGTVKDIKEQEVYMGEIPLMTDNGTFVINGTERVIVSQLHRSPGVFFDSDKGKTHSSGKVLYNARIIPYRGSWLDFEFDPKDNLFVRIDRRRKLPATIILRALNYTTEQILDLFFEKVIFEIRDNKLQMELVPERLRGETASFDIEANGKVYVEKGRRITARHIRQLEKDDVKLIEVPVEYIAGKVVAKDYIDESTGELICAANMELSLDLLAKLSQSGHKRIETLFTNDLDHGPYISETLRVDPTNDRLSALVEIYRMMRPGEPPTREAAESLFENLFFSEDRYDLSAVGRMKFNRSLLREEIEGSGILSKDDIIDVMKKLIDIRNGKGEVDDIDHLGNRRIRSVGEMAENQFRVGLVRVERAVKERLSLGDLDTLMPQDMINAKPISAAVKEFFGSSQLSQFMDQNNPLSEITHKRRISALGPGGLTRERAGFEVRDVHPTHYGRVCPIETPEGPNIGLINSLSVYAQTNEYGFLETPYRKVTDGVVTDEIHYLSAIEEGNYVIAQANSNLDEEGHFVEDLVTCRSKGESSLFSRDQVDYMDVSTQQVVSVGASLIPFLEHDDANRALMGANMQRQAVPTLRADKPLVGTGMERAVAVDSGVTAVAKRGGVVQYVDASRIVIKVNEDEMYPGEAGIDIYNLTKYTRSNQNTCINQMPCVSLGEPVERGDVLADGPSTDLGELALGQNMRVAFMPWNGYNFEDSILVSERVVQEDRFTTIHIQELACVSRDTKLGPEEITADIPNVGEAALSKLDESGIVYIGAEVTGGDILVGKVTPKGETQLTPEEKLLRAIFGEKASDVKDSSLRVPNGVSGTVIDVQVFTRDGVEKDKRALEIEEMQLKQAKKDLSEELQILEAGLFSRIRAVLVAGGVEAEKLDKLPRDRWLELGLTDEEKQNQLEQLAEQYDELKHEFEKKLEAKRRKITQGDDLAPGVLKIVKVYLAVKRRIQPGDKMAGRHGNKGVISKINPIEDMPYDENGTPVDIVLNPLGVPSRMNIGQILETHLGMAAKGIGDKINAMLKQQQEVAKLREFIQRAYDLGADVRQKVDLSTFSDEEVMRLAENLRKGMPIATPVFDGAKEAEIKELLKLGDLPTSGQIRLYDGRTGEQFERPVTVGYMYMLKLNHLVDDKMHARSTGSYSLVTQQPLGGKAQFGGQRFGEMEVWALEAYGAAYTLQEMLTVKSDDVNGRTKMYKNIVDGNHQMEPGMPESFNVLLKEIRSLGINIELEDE
# wild-type E. coli core RNA polymerase, sequence (P0A7Z4 whole entry, chain 3 of 4): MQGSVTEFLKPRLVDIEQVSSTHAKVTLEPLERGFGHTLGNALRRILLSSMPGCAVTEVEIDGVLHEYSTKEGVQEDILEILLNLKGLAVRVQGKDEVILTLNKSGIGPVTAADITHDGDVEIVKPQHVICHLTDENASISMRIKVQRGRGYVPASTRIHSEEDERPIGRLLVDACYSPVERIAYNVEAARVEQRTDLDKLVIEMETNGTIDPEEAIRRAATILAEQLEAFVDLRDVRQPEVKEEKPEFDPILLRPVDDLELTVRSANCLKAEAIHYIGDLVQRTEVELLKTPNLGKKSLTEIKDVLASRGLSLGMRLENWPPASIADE
# wild-type E. coli core RNA polymerase, sequence (P0A800 whole entry, chain 4 of 4): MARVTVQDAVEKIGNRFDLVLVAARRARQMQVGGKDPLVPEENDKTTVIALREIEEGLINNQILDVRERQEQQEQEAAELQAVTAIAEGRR
binder,measurement,value
"DksA^A35C labeled with Alexa Fluor 546 maleimide (natural protein, Escherichia coli, UniProt P0ABS1 1-151, looked up, labeled with Alexa Fluor 546 maleimide (labeling efficiency 60-100%)) MQEGQNRKTSSLSILAIAGVEPYQEKPGEEYMNECQLAHFRRILEAWRNQLRDEVDRTVTHMQDEAANFPDPVDRAAQEEEFSLELRNRDRERKLIKKIEKTLKKVEDEDFGYCESCGVEIGIRRLEARPTADLCIDCKTLAEIREKQMAG",Kd,102 ± 13 nM
